Data on 13 compounds can be found in patent publication US20240376151A1, “STAPLED PEPTIDES AND METHODS THEREOF” (FOG PHARMACEUTICALS, INC., priority 2022, published 2024).

Data set [1] relates to Expi293 cells. Put plainly: Measurement of the Cell Association of Helicons (mass spectrometry quantification in cells after treatment and wash). The format is cell-based. Conditions: percentage of Helicons in cells after treatment and wash, 22 hours, n = 2, mean ± SD. How it is done: All samples were analyzed using mass spectrometry.
Data set [2] relates to Expi293 cells. Kind of data set: CellTiter-Glo cell health (ATP levels) during cell association assay. The format is cell-based. The conditions noted are these: reflective of cell health, luminescence Tfinal (22 hours) / Tinitial. For orientation: In ATP-based viability assays light output follows the ATP content of the culture.
The target of data set [3] is T1, CUL1 (Homo sapiens, UniProt Q13616, L371D/V367R).
T1 construct: CUL1 (Uniprot ID: Q13616, residue 15-410, V367R/L371D); GST-TEV (N, cleaved yes); made in house; host or cells: E. coli BL21 CodonPlus
T1 sequence (Q13616 15-410 V367R/L371D): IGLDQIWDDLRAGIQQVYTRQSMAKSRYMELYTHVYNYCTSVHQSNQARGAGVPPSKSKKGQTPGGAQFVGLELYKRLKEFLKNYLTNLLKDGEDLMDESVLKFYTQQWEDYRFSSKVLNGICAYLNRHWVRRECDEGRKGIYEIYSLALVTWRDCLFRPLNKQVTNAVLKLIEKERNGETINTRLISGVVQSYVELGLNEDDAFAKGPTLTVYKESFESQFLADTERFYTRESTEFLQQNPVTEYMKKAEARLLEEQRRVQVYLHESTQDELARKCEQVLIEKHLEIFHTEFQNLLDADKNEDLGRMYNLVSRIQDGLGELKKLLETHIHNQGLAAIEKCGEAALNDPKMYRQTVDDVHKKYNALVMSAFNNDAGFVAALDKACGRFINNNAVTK
Put plainly: Naive Library Presenter Screening (phage, NGS), CUL1. The format is binding. The conditions noted are these: for interaction data at Target Concentration 10: CUL1 target concentration 10 nM; for interaction data at Target Concentration 30: CUL1 target concentration 30 nM; for interaction data at Target Concentration 100: CUL1 target concentration 100 nM; for interaction data at Target Concentration 300: CUL1 target concentration 300 nM; for interaction data at Target Concentration 1000: CUL1 target concentration 1000 nM.

For the compound “Ac-[5FAM]-Lys-Gln-Ser-Gln-Gln-Thr-Phe-R8-Asn-Leu-Trp-Arg-Leu-Leu-S5-Gln-Asn-NH2 (KQSQQTFXNLWRLLXQN; Ac, 5FAM, R8-S5 staple, C-terminal amide; SITE 1 Acetylated 5-Carboxyfluorescein modified residue; SITE 8 (R)-2-amino-2-methyldec-9-enoic acid, useful for stapling/stapled with another amino acid residue comprising an olefin group to form a staple through the olefin group; SITE 15 (S)-2-amino-2-methylhept-6-enoic acid, useful for stapling/stapled with another amino acid residue comprising an olefin group to form a staple through the olefi) [FP47839, reference compound]”, the “Helicon in cells ± SD (%)” value in data set [1] is 2.1 ± 0.1%. Further, the “CellTiter-Glo fold change ± SD” value in data set [2] is reported as 1.3 ± 0.01.

With `CCCC[C@H](NC(=O)[C@@H](NC(C)=O)C(C)C)C(=O)N[C@@H](CCC(N)=O)C(=O)N[C@]1(C)CCCCCCC=CCCC[C@@](C)(C(=O)N[C@@H](Cc2c[nH]cn2)C(=O)N[C@@H](Cc2ccc(O)cc2)C(=O)N[C@H](C(N)=O)C(C)C)NC(=O)[C@H]([C@@H](C)CC)NC(=O)[C@H](Cc2ccccc2)NC(=O)[C@H](C)NC(=O)[C@H](C)NC(=O)[C@H](CCC(N)=O)NC(=O)[C@H](Cc2ccc(O)cc2)NC1=O` (single isomer, unassigned) [FP07871, Ac-Val-nLeu-Gln-R8-Tyr-Gln-Ala-Ala-Phe-Ile-S5-His-Tyr-Val-NH2], the “Helicon in cells ± SD (%)” value in data set [1] worked out at 7.0 ± 0.3%. The “CellTiter-Glo fold change ± SD” value in data set [2] worked out at 1.2 ± 0.03.

Consider `CC[C@H](C)[C@H](NC(=O)[C@H](Cc1ccc(O)cc1)NC(=O)[C@H](CCC(N)=O)NC(=O)[C@]1(C)CCCC=CCCCCCC[C@@](C)(NC(=O)[C@H](Cc2c[nH]cn2)NC(=O)[C@@H](NC(=O)[C@@H](NC(C)=O)[C@@H](C)CC)[C@@H](C)CC)C(=O)N[C@@H](Cc2ccc(O)cc2)C(=O)N[C@@H](CCC(=O)O)C(=O)N[C@@H](C)C(=O)N[C@@H](C)C(=O)N[C@@H](Cc2ccccc2)C(=O)N[C@@H](Cc2ccccc2)C(=O)N1)C(N)=O` (single isomer, unassigned) [FP08011, Ac-Ile-Ile-His-R8-Tyr-Glu-Ala-Ala-Phe-Phe-S5-Gln-Tyr-Ile-NH2], for which the “Helicon in cells ± SD (%)” value in data set [1] is reported as 6.5 ± 0.5%. Also, the “CellTiter-Glo fold change ± SD” value in data set [2] is listed as 1.2 ± 0.01.

`CCCC[C@H](NC(=O)[C@@H](NC(C)=O)C(C)C)C(=O)N[C@@H](CCC(N)=O)C(=O)N[C@]1(C)CCCCCCC=CCCC[C@@](C)(C(=O)N[C@@H](Cc2c[nH]cn2)C(=O)N[C@@H](Cc2ccc(O)cc2)C(=O)N[C@H](C(N)=O)C(C)C)NC(=O)[C@H]([C@@H](C)CC)NC(=O)[C@H](Cc2ccccc2)NC(=O)[C@H](C)NC(=O)[C@H](C)NC(=O)[C@H](CCC(=O)O)NC(=O)[C@H](Cc2ccc(O)cc2)NC1=O` (single isomer, unassigned) [FP07864, Ac-Val-nLeu-Gln-R8-Tyr-Glu-Ala-Ala-Phe-Ile-S5-His-Tyr-Val-NH2]: the “Helicon in cells ± SD (%)” value in data set [1] came to 18.5 ± 11.4%. Besides, the “CellTiter-Glo fold change ± SD” value in data set [2] is on record as 1.1 ± 0.05.

Regarding DPAQILCDLAALYCVVE, in data set [3], the “interaction data at Target Concentration 10” value is 0, the “interaction data at Target Concentration 30” value came out at 7, the “interaction data at Target Concentration 100” value is 61 and the “interaction data at Target Concentration 300” value came out at 73. The “interaction data at Target Concentration 1000” value in data set [3] (first column) was found to be 111. Also, the “interaction data at Target Concentration 1000” value in data set [3] (second column) is on record as 119.

On to `CCCC[C@H](NC(=O)[C@@H](NC(C)=O)C(C)C)C(=O)N[C@@H](CCC(=O)O)C(=O)N[C@]1(C)CCCCCCC=CCCC[C@@](C)(C(=O)N[C@@H](Cc2c[nH]cn2)C(=O)N[C@@H](Cc2ccc(O)cc2)C(=O)N[C@H](C(N)=O)C(C)C)NC(=O)[C@H]([C@@H](C)CC)NC(=O)[C@H](Cc2ccccc2)NC(=O)[C@H](C)NC(=O)[C@H](C)NC(=O)[C@H](CCC(N)=O)NC(=O)[C@H](Cc2ccc(O)cc2)NC1=O` (single isomer, unassigned) [FP07868, Ac-Val-nLeu-Glu-R8-Tyr-Gln-Ala-Ala-Phe-Ile-S5-His-Tyr-Val-NH2], for which the “Helicon in cells ± SD (%)” value in data set [1] stood at 10.3 ± 1.4%. The “CellTiter-Glo fold change ± SD” value in data set [2] was 1.2 ± 0.10.

On to `CC[C@H](C)[C@H](NC(C)=O)C(=O)N[C@@H](CC(C)C)C(=O)N[C@@H](CCC(N)=O)C(=O)N[C@]1(C)CCCCCCC=CCCC[C@@](C)(C(=O)N[C@@H](Cc2c[nH]cn2)C(=O)N[C@@H](Cc2ccc(O)cc2)C(=O)N[C@@H](CCC(N)=O)C(N)=O)NC(=O)[C@H](CO)NC(=O)[C@H](Cc2ccccc2)NC(=O)[C@H](C)NC(=O)[C@H](C)NC(=O)[C@H](CCC(=O)O)NC(=O)[C@H](Cc2ccc(O)cc2)NC1=O` (single isomer, unassigned) [FP07859, Ac-Ile-Leu-Gln-R8-Tyr-Glu-Ala-Ala-Phe-Ser-S5-His-Tyr-Gln-NH2], for which the “Helicon in cells ± SD (%)” value in data set [1] was found to be 0.1 ± 0.0%. Besides, the “CellTiter-Glo fold change ± SD” value in data set [2] is 1.2 ± 0.02.

DPAYFACDIAALMCTVH: in data set [3], the “interaction data at Target Concentration 10” value came out at 0, the “interaction data at Target Concentration 30” value was 2, the “interaction data at Target Concentration 100” value came to 131 and the “interaction data at Target Concentration 300” value is 135. In addition, in data set [3] (first column), the “interaction data at Target Concentration 1000” value came out at 403. Also, the “interaction data at Target Concentration 1000” value in data set [3] (second column) stood at 120.

With DPAEAACDIAALMCIID, in data set [3], the “interaction data at Target Concentration 10” value came out at 15, the “interaction data at Target Concentration 30” value turned out to be 13, the “interaction data at Target Concentration 100” value was 65 and the “interaction data at Target Concentration 300” value is 211. The “interaction data at Target Concentration 1000” value in data set [3] (first column) was 203. Further, the “interaction data at Target Concentration 1000” value in data set [3] (second column) is on record as 195.

Consider DPAEMQCDYAAILCIVR, for which, in data set [3], the “interaction data at Target Concentration 10” value is listed as 0, the “interaction data at Target Concentration 30” value is reported as 0, the “interaction data at Target Concentration 100” value was found to be 32 and the “interaction data at Target Concentration 300” value was determined as 95. Moreover, in data set [3] (first column), the “interaction data at Target Concentration 1000” value is 114. For the same compound, the “interaction data at Target Concentration 1000” value in data set [3] (second column) came to 71.

In the case of DPAMLQCDMAALWCMVS, in data set [3], the “interaction data at Target Concentration 10” value was 1, the “interaction data at Target Concentration 30” value was 3, the “interaction data at Target Concentration 100” value is 77 and the “interaction data at Target Concentration 300” value was determined as 64. Further, in data set [3] (first column), the “interaction data at Target Concentration 1000” value is 143. The “interaction data at Target Concentration 1000” value in data set [3] (second column) was determined as 126.

Consider DPAYDWCDVAALFCLVE, for which, in data set [3], the “interaction data at Target Concentration 10” value was 0, the “interaction data at Target Concentration 30” value was determined as 0, the “interaction data at Target Concentration 100” value worked out at 57 and the “interaction data at Target Concentration 300” value stood at 36. In data set [3] (first column), the “interaction data at Target Concentration 1000” value was found to be 57. For the same compound, the “interaction data at Target Concentration 1000” value in data set [3] (second column) turned out to be 151.

As to DPAEFVCDWAALACLVD, in data set [3], the “interaction data at Target Concentration 10” value is on record as 4, the “interaction data at Target Concentration 30” value worked out at 32, the “interaction data at Target Concentration 100” value was determined as 183 and the “interaction data at Target Concentration 300” value was determined as 247. The “interaction data at Target Concentration 1000” value in data set [3] (first column) is on record as 517. Moreover, the “interaction data at Target Concentration 1000” value in data set [3] (second column) is listed as 300.
